According to publication PMC5834252, “Targeting scFv-Fc-scTRAIL fusion proteins to tumor cells” (Oncotarget, 2018):

Target: T1, Mouse TRAIL-R2-Fc (mouse, UniProt Q9QZM4 53-180)
T1 construct: mouse TRAIL-R2; Named in the materials only; source: bought: Sino Biological Inc. (50412-M03H)
Assay: ELISA; Fc fusion proteins of human and mouse TRAIL receptors coated (200 ng/well); 40 nM scTRAIL units; detected with anti-FLAG-HRP; relative OD450
Conditions: both partners purified

T1 sequence (Q9QZM4 53-180): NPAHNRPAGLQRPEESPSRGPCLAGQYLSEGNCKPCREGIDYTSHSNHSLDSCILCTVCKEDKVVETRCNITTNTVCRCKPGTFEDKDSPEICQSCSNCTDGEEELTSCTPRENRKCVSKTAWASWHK

B1: Fc-scTRAIL (Fc fusion, human)
chain: GPQRVAAHITGTRGRSNTLSSPNSKNEKALGRKINSWESSRSGHSFLSNLHLRNGELVIHEKGFYYIYSQTYFRFQEEIKENTKNDKQMVQYIYKYTSYPDPILLMKSARNSCWSKDAEYGLYSIYQGGIFELKENDRIFVSVTNEHLIDMDHEASFFGAFLVGGGPQRVAAHITGTRGRSNTLSSPNSKNEKALGRKINSWESSRSGHSFLSNLHLRNGELVIHEKGFYYIYSQTYFRFQEEIKENTKNDKQMVQYIYKYTSYPDPILLMKSARNSCWSKDAEYGLYSIYQGGIFELKENDRIFVSVTNEHLIDMDHEASFFGAFLVGGGPQRVAAHITGTRGRSNTLSSPNSKNEKALGRKINSWESSRSGHSFLSNLHLRNGELVIHEKGFYYIYSQTYFRFQEEIKENTKNDKQMVQYIYKYTSYPDPILLMKSARNSCWSKDAEYGLYSIYQGGIFELKENDRIFVSVTNEHLIDMDHEASFFGAFLVG
notes: human TRAIL, first protomer of single-chain TRAIL (scTRAIL), amino acids 118-281; single glycine residue as linker between the TRAIL protomers; human TRAIL, second protomer of scTRAIL, amino acids 118-281; human TRAIL, third protomer of scTRAIL, amino acids 118-281; scTRAIL is fused to the C-terminus of the human gamma1 Fc; disulfide-linked dimer (hexavalent TRAIL); also called non-targeted …
  binding result: binds
